Where a chain is given by its changes, count along the chain named. In names and notes the source's numbering stands. Each block holds one molecule with its values, some of them ahead of it.
Legend:
[1] = target: 7β-HSDH obtainable from Collinsella aerofaciens DSM 3979 (Collinsella aerofaciens, UniProt A4ECA9); settings: cited from earlier work
[2] = target: T1, Collinsella aerofaciens 7β-HSDH mutant [R64E], with His tag, SEQ ID NO:4 (Collinsella aerofaciens, UniProt A4ECA9, R64E); assay: Michaelis-Menten kinetics, purified 7β-HSDH [R64E]; settings: in comparison with the wild type
T1 sequence (A4ECA9 with tags, fused parts or gaps R64E): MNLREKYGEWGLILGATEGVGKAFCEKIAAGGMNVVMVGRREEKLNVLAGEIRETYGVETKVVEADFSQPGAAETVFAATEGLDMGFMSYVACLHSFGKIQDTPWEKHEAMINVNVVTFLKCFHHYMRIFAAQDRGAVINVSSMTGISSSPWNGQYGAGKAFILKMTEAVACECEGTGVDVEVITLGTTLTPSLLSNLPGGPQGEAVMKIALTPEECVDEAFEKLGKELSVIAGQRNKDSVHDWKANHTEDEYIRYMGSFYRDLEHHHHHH

[3] = target: T2, Collinsella aerofaciens 7β-HSDH dual mutant [G39S/R64E], with His tag, SEQ ID NO:6 (Collinsella aerofaciens, UniProt A4ECA9, G39S/R64E); assay: Michaelis-Menten kinetics, purified 7β-HSDH [G39S/R64E]
T2 sequence (A4ECA9 with tags, fused parts or gaps G39S/R64E): T1 sequence (A4ECA9 with tags, fused parts or gaps R64E) with G39S

[4] = target: Collinsella aerofaciens 7β-HSDH mutant [T17F] (Collinsella aerofaciens, UniProt A4ECA9, T17F); assay type: biochemical; settings: in comparison with the wild type
Collinsella aerofaciens 7β-HSDH mutant [T17F], sequence (A4ECA9 1-263 with tags or gaps T17F): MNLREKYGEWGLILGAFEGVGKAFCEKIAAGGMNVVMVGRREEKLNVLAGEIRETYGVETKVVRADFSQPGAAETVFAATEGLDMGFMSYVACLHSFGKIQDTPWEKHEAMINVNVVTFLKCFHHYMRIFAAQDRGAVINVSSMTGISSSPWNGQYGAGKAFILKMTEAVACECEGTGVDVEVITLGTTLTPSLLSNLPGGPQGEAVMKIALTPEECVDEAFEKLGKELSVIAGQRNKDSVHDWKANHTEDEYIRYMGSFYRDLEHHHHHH

[5] = target: T3, Collinsella aerofaciens 7β-HSDH mutant [G39S], with His tag, SEQ ID NO:5 (Collinsella aerofaciens, UniProt A4ECA9, G39S); assay: Michaelis-Menten kinetics, purified 7β-HSDH [G39S]; settings: in comparison with the wild type
T3 sequence (A4ECA9 with tags, fused parts or gaps G39S): T1 sequence (A4ECA9 with tags, fused parts or gaps R64E) with G39S, E64R

[6] = test system: Collinsella aerofaciens DSM 3979 (ATCC 25986) 7β-HSDH, wild type, SEQ ID NO:2; settings: cited from earlier work
[7] = Photometric activity determination of 7β-HSDH and mutants (decrease in absorbance at 340 nm, DHCA reduction with NADPH); assay type: biochemical
Protocol: The activity of the 7β-HSDH and of the mutants was determined using a photometric assay, where the decrease in absorbance was measured at 340 nm over a period of 30 seconds.
The expression [R64E] in the first column of the table means that the arginine (R) in position 64 of the protein sequence had been replaced by glutamic acid (E) in the mutant in question. The respective amino acid is abbreviated using the international one-letter code. Analogously, [R64D] means that an aspartic acid has been introduced at this position.

[8] = Cofactor specificity of 7β-HSDH types (compilation of improvements); assay type: biochemical
[9] = substrate: NC(=O)C1=CN([C@@H]2O[C@H](COP(=O)(O)OP(=O)(O)OC[C@H]3O[C@@H](n4cnc5c(N)ncnc54)[C@H](OP(=O)(O)O)[C@@H]3O)[C@@H](O)[C@H]2O)C=CC1; assay: purified protein, by the assay type; settings: other: purified enzyme, 340 nm, 50 mM KPi pH 8.0, substrate DHCA / cofactor NADPH
[10] = substrate: C[C@H](CCC(=O)O)[C@H]1CC[C@H]2[C@@H]3C(=O)C[C@@H]4CC(=O)CC[C@]4(C)[C@H]3CC(=O)[C@]12C; assay: purified protein, by the assay type; settings: other: purified enzyme, 340 nm, 50 mM KPi pH 8.0, substrate DHCA / cofactor NADPH
[11] = Table 9, variants modified at position 17
[12] = Table 4, variants modified at position 64, 10 mM DHCA, NADPH, KPi pH 8.0
[13] = Table 10, dual mutant versus wild type

7β-HSDH obtainable from Collinsella aerofaciens DSM 3979, sequence (A4ECA9 whole entry): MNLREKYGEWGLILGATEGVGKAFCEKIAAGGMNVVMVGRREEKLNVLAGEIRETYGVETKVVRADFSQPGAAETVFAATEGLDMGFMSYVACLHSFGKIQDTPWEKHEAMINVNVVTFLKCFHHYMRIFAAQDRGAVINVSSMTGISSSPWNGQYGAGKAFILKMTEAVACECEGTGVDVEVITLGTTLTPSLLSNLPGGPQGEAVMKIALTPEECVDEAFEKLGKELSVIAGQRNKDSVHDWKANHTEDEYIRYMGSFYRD

Molecule: C[C@H](CCC(=O)O)[C@H]1CC[C@H]2[C@@H]3C(=O)C[C@@H]4CC(=O)CC[C@]4(C)[C@H]3CC(=O)[C@]12C [DHCA, dehydrocholic acid]
- kcat [1]: 875.35
- Vmax (DHCA), improvement [2]: +5-fold better
- Substrate inhibition Ki ([2]; in words): +reduced
- Vmax (DHCA), improvement ([3]; in comparison with the wild type): +7-fold better
- substrate inhibition ([3]; in words, course of kinetics in FIG. 6): no longer demonstrates a substrate inhibition
- Substrate inhibition Ki ([3]; in words, in comparison with the wild type): ++eliminated
- Vmax (DHCA), improvement [4]: +5-fold better
- Vmax (DHCA), improvement [5]: +6-fold better
- Substrate inhibition Ki ([5]; in words): +reduced

Molecule: NC(=O)c1ccc[n+]([C@@H]2O[C@H](COP(=O)([O-])OP(=O)(O)OC[C@H]3O[C@@H](n4cnc5c(N)ncnc54)[C@H](OP(=O)(O)O)[C@@H]3O)[C@@H](O)[C@H]2O)c1 [NADP^+]
- Vmax [1]: 30.58 U/mg Protein
- kcat [1]: 944.95
- kcat [6]: 944.95

B1: 7β-HSDH [T17F]: 7β-HSDH mutant, threonine at position 17 replaced by F (protein, UniProt A4ECA9 1-263, looked up, variant T17F)
7beta-hydroxysteroid …: MNLREKYGEWGLILGAFEGVGKAFCEKIAAGGMNVVMVGRREEKLNVLAGEIRETYGVETKVVRADFSQPGAAETVFAATEGLDMGFMSYVACLHSFGKIQDTPWEKHEAMINVNVVTFLKCFHHYMRIFAAQDRGAVINVSSMTGISSSPWNGQYGAGKAFILKMTEAVACECEGTGVDVEVITLGTTLTPSLLSNLPGGPQGEAVMKIALTPEECVDEAFEKLGKELSVIAGQRNKDSVHDWKANHTEDEYIRYMGSFYRD
- Specific activity [7, 11]: 46.1 U/mg
- Volumetric activity [7, 11]: 645.2 U/ml
- Cofactor specificity [8]: NADPH/low

B2: Collinsella aerofaciens 7β-HSDH (WT), with C-terminal His tag, SEQ ID NO:3 (Collinsella aerofaciens ATCC 25986) (protein)
chain: T1 sequence (A4ECA9 with tags, fused parts or gaps R64E) with E64R
- Km [9]: 15.2 ± 2.2 µM
- Vmax [9]: 8.8 µmol/min/mg
- Km [10]: 20.5 ± 2.9 µM
- Vmax [10]: 8.7 µmol/min/mg

B3: 7β-HSDH [G39S]: 7β-HSDH mutant which contains serine instead of glycine at position 39; His tag, SEQ ID NO:5 (protein)
chain: T1 sequence (A4ECA9 with tags, fused parts or gaps R64E) with G39S, E64R
modifications: His tag; 7-beta-HSDH G39S Mutant
- Volumetric activity ([7]; text of example 3, position 39): 735 U/ml
- specific enzymatic activity ([7]; text of example 3, position 39, per mg protein): 52.9 U/mg
- Cofactor specificity [8]: NADPH

- activity compared with the wild-type enzyme ([7]; qualitative statement): increase in the specific activity
B4: 7β-HSDH [R64E]: 7β-HSDH mutant, arginine (R) in position 64 replaced by glutamic acid (E); His tag, SEQ ID NO:4 (protein)
chain: T1 sequence (A4ECA9 with tags, fused parts or gaps R64E)
modifications: His tag; 7-beta-HSDH R64E Mutant
- Specific activity [7, 12]: 60.2 U/mg
- Volumetric activity [7, 12]: 892.7 U/ml
- Cofactor specificity [8]: NADPH

B5: 7β-HSDH [G39S/R64E]: 7β-HSDH dual mutant, positions 39 ([G39S]) and 64 ([R64E]) modified at the same time; His tag, SEQ ID NO:6 (protein)
chain: T1 sequence (A4ECA9 with tags, fused parts or gaps R64E) with G39S, E64R
modifications: His tag; 7-beta-HSDH G39S/R64E Mutant
- Specific activity [7, 13]: 57.5 U/mg
- Volumetric activity [7, 13]: 1115.0 U/ml
- Cofactor specificity [8]: NADPH

— US10358672B2, “7-β-hydroxysteroid dehydrogenase mutants and process for the preparation of ursodeoxycholic acid” (Pharmazell GmbH, priority 2014, dated 2019)
